B1: human NPC2 (natural protein)
chain: EPVQFKDCGSVDGVIKEVNVSPCPTQPCQLSKGQSYSVNVTFTSNIQSKSSKAVVHGILMGVPVPFPIPEPDGCKSGINCPIQKDKTYSYLNKLPVKSEYPSIKLVVEWQLQDDKNQSLFCWEIPVQIVSHL
B2: human NPC1 ΔLinker (full length with internal deletion of the Pro-rich segment 249…257) (natural protein)
chain: QSCVWYGECGIAYGDKRYNCEYSGPPKPLPKDGYDLVQELCPGFFFGNVSLCCDVRQLQTLKDNLQLPLQFLSRCPSCFYNLLNLFCELTCSPRQSQFLNVTATEDYVDPVTNQTKTNVKELQYYVGQSFANAMYNACRDVEAPSSNDKALGLLCGKDADACNATNWIEYMFNKDNGQAPFTITPVFSDFPVHGMEPMNNATKGCDESVDEVTAPCSCQDCSIVCGAPWTILGLDAMYVIMWITYMAFLLVFFGAFFAVWCYRKRYFVSEYTPIDSNIAFSVNASDKGEASCCDPVSAAFEGCLRRLFTRWGSFCVRNPGCVIFFSLVFITACSSGLVFVRVTTNPVDLWSAPSSQARLEKEYFDQHFGPFFRTEQLIIRAPLTDKHIYQPYPSGADVPFGPPLDIQILHQVLDLQIAIENITASYDNETVTLQDICLAPLSPYNTNCTILSVLNYFQNSHSVLDHKKGDDFFVYADYHTHFLYCVRAPASLNDTSLLHDPCLGTFGGPVFPWLVLGGYDDQNYNNATALVITFPVNNYYNDTEKLQRAQAWEKEFINFVKNYKNPNLTISFTAERSIEDELNRESDSDVFTVVISYAIMFLYISLALGHMKSCRRLLVDSKVSLGIAGILIVLSSVACSLGVFSYIGLPLTLIVIEVIPFLVLAVGVDNIFILVQAYQRDERLQGETLDQQLGRVLGEVAPSMFLSSFSETVAFFLGALSVMPAVHTFSLFAGLAVFIDFLLQITCFVSLLGLDIKRQEKNRLDIFCCVRGAEDGTSVQASESCLFRFFKNSYSPLLLKDWMRPIVIAIFVGVLSFSIAVLNKVDIGLDQSLSMPDDSYMVDYFKSISQYLHAGPPVYFVLEEGHDYTSSKGQNMVCGGMGCNNDSLVQQIFNAAQLDNYTRIGFAPSSWIDDYFDWVKPQSSCCRVDNITDQFCNASVVDPACVRCRPLTPEGKQRPQGGDFMRFLPMFLSDNPNPKCGKGGHAAYSSAVNILLGHGTRVGATYFMTYHTVLQTSADFIDALKKARLIASNVTETMGINGSAYRVFPYSVFYVFYEQYLTIIDDTIFNLGVSLGAIFLVTMVLLGCELWSAVIMCATIAMVLVNMFGVMWLWGISLNAVSLVNLVMSCGISVEFCSHITRAFTVSMKGSRVERAEEALAHMGSSVFSGITLTKFGGIVVLAFAKSQIFQIFYFRMYLAMVLLGATHGLIFLPVLLSYIGPSVNKAKSCATEERYKGTERERLLNF

Holding throughout (test): ITC
In experiment [1] the target is T1, full-length human NPC1 (Niemann-Pick C1) (human, UniProt O15118 23-1278).
T1 sequence: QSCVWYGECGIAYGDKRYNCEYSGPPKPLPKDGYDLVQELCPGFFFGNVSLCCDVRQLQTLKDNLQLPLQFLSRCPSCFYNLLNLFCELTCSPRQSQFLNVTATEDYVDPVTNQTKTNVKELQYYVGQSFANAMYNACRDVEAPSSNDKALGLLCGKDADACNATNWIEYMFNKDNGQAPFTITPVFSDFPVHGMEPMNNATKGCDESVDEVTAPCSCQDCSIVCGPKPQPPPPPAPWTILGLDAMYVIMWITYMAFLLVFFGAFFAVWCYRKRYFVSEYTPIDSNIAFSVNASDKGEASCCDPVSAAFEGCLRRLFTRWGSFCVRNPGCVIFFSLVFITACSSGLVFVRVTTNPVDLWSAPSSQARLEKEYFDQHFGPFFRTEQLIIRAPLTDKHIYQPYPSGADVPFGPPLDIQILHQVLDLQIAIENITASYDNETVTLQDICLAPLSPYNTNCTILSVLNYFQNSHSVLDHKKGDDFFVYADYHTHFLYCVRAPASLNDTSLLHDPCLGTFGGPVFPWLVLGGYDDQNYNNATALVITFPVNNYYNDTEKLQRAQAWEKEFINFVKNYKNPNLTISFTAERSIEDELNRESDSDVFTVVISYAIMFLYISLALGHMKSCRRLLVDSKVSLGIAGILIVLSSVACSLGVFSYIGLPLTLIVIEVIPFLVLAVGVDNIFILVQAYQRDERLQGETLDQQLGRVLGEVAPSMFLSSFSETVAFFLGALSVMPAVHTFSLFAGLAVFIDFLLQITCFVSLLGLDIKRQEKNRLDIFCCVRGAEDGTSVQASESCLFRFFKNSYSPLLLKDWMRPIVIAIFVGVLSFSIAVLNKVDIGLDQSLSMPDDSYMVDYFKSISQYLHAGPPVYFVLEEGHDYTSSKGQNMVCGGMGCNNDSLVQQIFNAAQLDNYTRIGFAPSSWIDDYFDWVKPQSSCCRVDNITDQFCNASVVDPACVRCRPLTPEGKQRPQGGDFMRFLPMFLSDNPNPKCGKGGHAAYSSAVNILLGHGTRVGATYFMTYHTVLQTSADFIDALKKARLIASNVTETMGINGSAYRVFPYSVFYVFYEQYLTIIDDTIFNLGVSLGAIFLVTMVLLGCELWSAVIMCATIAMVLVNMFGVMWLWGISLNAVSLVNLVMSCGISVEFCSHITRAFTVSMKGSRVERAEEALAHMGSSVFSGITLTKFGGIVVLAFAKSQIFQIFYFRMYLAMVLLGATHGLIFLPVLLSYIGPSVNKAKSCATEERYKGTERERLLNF

The target in experiment [2] is T1, full-length human NPC1 (Niemann-Pick C1). This is another data set of the same source.
The experiment “human NPC2” deals with B1.

Like-named read-outs stand apart in the source and are kept apart here.

By Kd is commonly meant the concentration at which binding is half-saturated. Low values mean tighter binding, high ones weaker binding. Take B1: the Kd in experiment [1] was 15.8 ± 1.2 µM; in experiment [2] it was 217 ± 35.3 µM.
Consider B2, for which, in the experiment with human NPC2, the Kd stood at 266 ± 25.5 µM.

The record behind these values is PMC7111323 (Cell, 2016).
